Measured values taken from patent publication US20180044434A1 (PUBLIC UNIVERSITY CORPORATION YOKOHAMA CITY UNIVERSITY, published 2018).

Experiments:
[1] = target: T1, full-length recombinant human PAD4 (human, UniProt Q9UM07 1-663); experiment: ELISA, coated human PAD4; antibody 0.015625 ug/mL
T1 construct: Full-length recombinant; also called peptidylarginine deiminase 4

[2] = target: T1, full-length recombinant human PAD4; experiment: ELISA, coated human PAD4; antibody 0.0039063 ug/mL
[3] = target: T2, Ala mutant of TA0096, SEQ ID NO: 38; experiment: ELISA, coated peptide
T2 peptide: EENMDDQWMQDAMEIGY

[4] = target: T3, Ala mutant of TA0096, SEQ ID NO: 31; experiment: ELISA, coated peptide
T3 peptide: EENMADQWMQDEMEIGY

[5] = target: T4, Ala mutant of TA0096, SEQ ID NO: 29; experiment: ELISA, coated peptide
T4 peptide: EEAMDDQWMQDEMEIGY

[6] = target: T5, Ala mutant of TA0096, SEQ ID NO: 40; experiment: ELISA, coated peptide
T5 peptide: EENMDDQWMQDEMAIGY

[7] = target: T6, Ala mutant of TA0096, SEQ ID NO: 35; experiment: ELISA, coated peptide
T6 peptide: EENMDDQWAQDEMEIGY

[8] = target: T7, Ala mutant of TA0096, SEQ ID NO: 42; experiment: ELISA, coated peptide
T7 peptide: EENMDDQWMQDEMEIAY

[9] = target: T8, Ala mutant having 3-amino acid substitution, SEQ ID NO: 49; experiment: ELISA, coated peptide
T8 peptide: EENMDDQWMQDEMEIAA

[10] = target: T9, Ala mutant having 3-amino acid substitution, SEQ ID NO: 44; experiment: ELISA, coated peptide
T9 peptide: AAAMDDQWMQDEMEIGY

[11] = target: T10, Ala mutant having 3-amino acid substitution, SEQ ID NO: 48; experiment: ELISA, coated peptide
T10 peptide: EENMDDQWMQDEAAAGY

[12] = target: T11, TA0096 (peptide antigen corresponding to positions 340 to 356 of PAD4); experiment: ELISA, coated peptide
T11 peptide: EENMDDQWMQDEMEIGY

[13] = target: T12, Ala mutant of TA0096, SEQ ID NO: 39; experiment: ELISA, coated peptide
T12 peptide: EENMDDQWMQDEAEIGY

[14] = target: T13, Ala mutant having 3-amino acid substitution, SEQ ID NO: 45; experiment: ELISA, coated peptide
T13 peptide: EENAAAQWMQDEMEIGY

[15] = target: T14, Ala mutant of TA0096, SEQ ID NO: 27; experiment: ELISA, coated peptide
T14 peptide: AENMDDQWMQDEMEIGY

[16] = target: T15, Ala mutant of TA0096, SEQ ID NO: 33; experiment: ELISA, coated peptide
T15 peptide: EENMDDAWMQDEMEIGY

[17] = target: T16, Ala mutant of TA0096, SEQ ID NO: 28; experiment: ELISA, coated peptide
T16 peptide: EANMDDQWMQDEMEIGY

[18] = target: T17, Ala mutant of TA0096, SEQ ID NO: 41; experiment: ELISA, coated peptide
T17 peptide: EENMDDQWMQDEMEAGY

[19] = target: T18, Ala mutant of TA0096, SEQ ID NO: 43; experiment: ELISA, coated peptide
T18 peptide: EENMDDQWMQDEMEIGA

[20] = target: T19, Ala mutant having 3-amino acid substitution, SEQ ID NO: 47; experiment: ELISA, coated peptide
T19 peptide: EENMDDQWMAAAMEIGY

[21] = target: T20, Ala mutant of TA0096, SEQ ID NO: 30; experiment: ELISA, coated peptide
T20 peptide: EENADDQWMQDEMEIGY

[22] = target: T21, Ala mutant of TA0096, SEQ ID NO: 37; experiment: ELISA, coated peptide
T21 peptide: EENMDDQWMQAEMEIGY

[23] = target: T22, Ala mutant of TA0096, SEQ ID NO: 34; experiment: ELISA, coated peptide
T22 peptide: EENMDDQAMQDEMEIGY

[24] = target: T23, Ala mutant of TA0096, SEQ ID NO: 36; experiment: ELISA, coated peptide
T23 peptide: EENMDDQWMADEMEIGY

[25] = target: T1, full-length recombinant human PAD4; experiment: ELISA, coated human PAD4; antibody 6.104E-05 ug/mL
[26] = target: T24, full-length recombinant mouse PAD4 (mouse, UniProt Q9Z183 1-666); experiment: ELISA, coated mouse PAD4; antibody 0.0625 ug/mL
T24 construct: mature; Full-length recombinant

[27] = target: full-length recombinant human or mouse PAD4 (species used for Table 7 and FIG. 7 not stated); experiment: cell-based or functional assay
[28] = target: T22, Ala mutant of TA0096, SEQ ID NO: 34; experiment: ELISA, alanine scan (position 347)
Method: The epitope of each of A11 etc. was identified by alanine scan. Specifically, the following procedures (i) to (iii) were carried out. (i) Each amino acid residue of the antigen sequence (SEQ ID NO: 1) was replaced by another amino acid one by one, and 17 different Ala mutants (SEQ ID Nos: 27 to 43) were synthesized. (ii) The reactivity of each of the Ala mutants toward a test antibody was evaluated (ELISA).
The “96 pAb” designated in the table refers to antiserum as obtained by immunizing a chicken with TA0096 (SEQ ID NO: 1). The 96 pAb, which is an anti-PAD4 polyclonal antibody, can substantially keep the affinity toward PAD4 even if any of single amino acids of PAD4 is replaced.

T1 sequence (Q9UM07 whole entry): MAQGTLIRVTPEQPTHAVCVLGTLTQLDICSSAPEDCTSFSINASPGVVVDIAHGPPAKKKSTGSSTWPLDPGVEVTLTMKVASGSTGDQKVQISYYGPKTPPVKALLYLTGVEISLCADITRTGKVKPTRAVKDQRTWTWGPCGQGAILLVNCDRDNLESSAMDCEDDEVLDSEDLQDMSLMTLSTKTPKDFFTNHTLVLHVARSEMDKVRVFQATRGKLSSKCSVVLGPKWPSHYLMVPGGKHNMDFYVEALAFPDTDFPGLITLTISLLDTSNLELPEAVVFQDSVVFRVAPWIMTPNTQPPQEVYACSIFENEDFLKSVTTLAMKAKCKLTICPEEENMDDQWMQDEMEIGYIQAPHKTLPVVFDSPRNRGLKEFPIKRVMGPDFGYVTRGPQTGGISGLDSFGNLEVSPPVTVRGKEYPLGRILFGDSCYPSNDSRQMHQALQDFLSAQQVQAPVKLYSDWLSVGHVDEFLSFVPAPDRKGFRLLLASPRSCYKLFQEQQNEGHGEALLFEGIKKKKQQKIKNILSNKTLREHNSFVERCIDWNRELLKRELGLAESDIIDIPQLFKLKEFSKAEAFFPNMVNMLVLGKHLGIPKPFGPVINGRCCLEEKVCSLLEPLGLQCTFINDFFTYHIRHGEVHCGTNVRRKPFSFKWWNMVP
T24 sequence (Q9Z183 whole entry): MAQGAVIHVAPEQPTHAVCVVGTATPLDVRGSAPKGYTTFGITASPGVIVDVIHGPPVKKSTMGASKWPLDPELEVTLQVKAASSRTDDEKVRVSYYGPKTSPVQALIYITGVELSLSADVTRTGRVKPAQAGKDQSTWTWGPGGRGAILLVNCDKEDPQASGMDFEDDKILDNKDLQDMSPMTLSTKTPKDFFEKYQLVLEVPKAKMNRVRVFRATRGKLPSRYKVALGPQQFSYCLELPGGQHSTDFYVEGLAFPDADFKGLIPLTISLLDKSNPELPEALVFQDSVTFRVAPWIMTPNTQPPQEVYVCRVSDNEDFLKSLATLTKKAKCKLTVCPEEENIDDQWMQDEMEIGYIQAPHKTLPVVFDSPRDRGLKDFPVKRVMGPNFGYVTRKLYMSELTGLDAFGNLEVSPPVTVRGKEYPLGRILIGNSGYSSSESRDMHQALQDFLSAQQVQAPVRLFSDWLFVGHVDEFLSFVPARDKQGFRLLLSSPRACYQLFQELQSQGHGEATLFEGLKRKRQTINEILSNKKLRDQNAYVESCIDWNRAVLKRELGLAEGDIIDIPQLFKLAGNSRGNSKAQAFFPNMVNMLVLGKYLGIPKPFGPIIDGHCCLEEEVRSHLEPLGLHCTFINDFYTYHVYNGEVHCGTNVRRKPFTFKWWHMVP

OD 490/630 nm [1]: 2.07 | OD 490/630 nm [2]: 1.35 | OD 490/630 nm [3]: 1.99 | OD 490/630 nm [4]: 0.462 | OD 490/630 nm [5]: 1.9 | OD 490/630 nm [6]: 1.86 | OD 490/630 nm [7]: 0.065 | OD 490/630 nm [8]: 1.85 | OD 490/630 nm [9]: 1.86 | OD 490/630 nm [10]: 1.9 | OD 490/630 nm [11]: 1.87 | OD 490/630 nm [12]: 1.82 | OD 490/630 nm [13]: 1.81 | OD 490/630 nm [14]: 0.016 | OD 490/630 nm [15]: 1.9 | OD 490/630 nm [16]: 1.87 | OD 490/630 nm [17]: 1.95 | OD 490/630 nm [18]: 1.83 | OD 490/630 nm [19]: 1.87 | OD 490/630 nm [20]: 1.67 | OD 490/630 nm [21]: 1.95 | OD 490/630 nm [22]: 1.86 | OD 490/630 nm [23]: 0.066 | OD 490/630 nm [24]: 1.87 | OD 490/630 nm [25]: 0.111 | OD 490/630 nm [26]: 2.29 | Relative citrullination activity [27]: 35 relative to PBS = 100 | binding result [28]: no binding
B1: H7 (antibody, V domains shown)
VH: AVTLDESGGGLQTPGGALSLVCKASGFTFSTYAMGWMRQAPGKGLEYVAAIRNDGSWTGYGAAVKGRATILRDNGQSTVRLQLSNLRAEDTGTYYCAKYTGSSGGSIGAWGHGTEVIVS
VL: ASTQPSSVSANPGGTVEITCSGGSGRYYYGWYQQKSPGSAPVTVIYSSTHRPSNIPSRFSGSKSGSTATLTITGVQAEDEAVYFCGTADSSSYVFGAGTTLTVL
notes: Chicken variable regions in a mouse chimeric antibody (IgG1); also called anti-PAD4 antibody H7
